{"source": "the supplement of paper PMC9112550", "about": "“Optimization of the antimicrobial peptide Bac7 by deep mutational scanning” (BMC Biology, 2022);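 note: peptides expressed intracellularly from a pBAD plasmid library in pooled LB shake-flask culture, induced with 0.3% L-arabinose, DNA abundance read by NGS, three biological replicates, DESeq2 with apeglm shrinkage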", "data": [{"tested_on": "Escherichia coli TOP10", "assay": "shrunken log2 fold change of peptide-encoding DNA abundance (4.5 h post-induction vs induction); higher = less antimicrobial activity (less host growth inhibition)", "settings": "time post-induction: 4.5 h; library: site-saturation at positions 5, 18, 19, 20", "values": [{"sequence": "RRIRPRPPRLPRPRPRPMFPPRP", "shrunken log2 fold change": 0.0316}, {"sequence": "RRIRPRPPRLPRPRPRPIADPRP", "shrunken log2 fold change": 0.0705}, {"sequence": "RRIRWRPPRLPRPRPRPFNNPRP", "shrunken log2 fold change": -0.494}, {"sequence": "RRIRWRPPRLPRPRPRPSKMPRP", "shrunken log2 fold change": -0.0978}, {"sequence": "RRIRDRPPRLPRPRPRPTAFPRP", "shrunken log2 fold change": 0.231}, {"sequence": "RRIRMRPPRLPRPRPRPRWDPRP", "shrunken log2 fold change": 0.793}, {"sequence": "RRIRNRPPRLPRPRPRPENKPRP", "shrunken log2 fold change": -0.0669}, {"sequence": "RRIRFRPPRLPRPRPRPKWHPRP", "shrunken log2 fold change": -0.0786}, {"sequence": "RRIRSRPPRLPRPRPRPWCDPRP", "shrunken log2 fold change": -0.238}, {"sequence": "RRIRWRPPRLPRPRPRPPERPRP", "shrunken log2 fold change": 0.816}, {"sequence": "RRIRERPPRLPRPRPRPFSSPRP", "shrunken log2 fold change": -0.0152}, {"sequence": "RRIRQRPPRLPRPRPRPGTWPRP", "shrunken log2 fold change": 0.0676}, {"sequence": "RRIRLRPPRLPRPRPRPRLKPRP", "shrunken log2 fold change": 0.885}, {"sequence": "RRIRYRPPRLPRPRPRPAVEPRP", "shrunken log2 fold change": 0.161}, {"sequence": "RRIRNRPPRLPRPRPRPVQKPRP", "shrunken log2 fold change": -0.0122}, {"sequence": "RRIRWRPPRLPRPRPRPSCGPRP", "shrunken log2 fold change": 0.0847}, {"sequence": "RRIRRRPPRLPRPRPRPVWLPRP", "shrunken log2 fold change": 0.175}, {"sequence": "RRIRGRPPRLPRPRPRPMFLPRP", "shrunken log2 fold change": -0.0125}, {"sequence": "RRIRERPPRLPRPRPRPDWIPRP", "shrunken log2 fold change": -0.126}, {"sequence": "RRIRVRPPRLPRPRPRPEMDPRP", "shrunken log2 fold change": 0.111}, {"sequence": "RRIRTRPPRLPRPRPRPSFHPRP", "shrunken log2 fold change": -0.772}, {"sequence": "RRIRCRPPRLPRPRPRPWMDPRP", "shrunken log2 fold change": -0.169}, {"sequence": "RRIRQRPPRLPRPRPRPAFCPRP", "shrunken log2 fold change": 0.585}, {"sequence": "RRIRFRPPRLPRPRPRPKMAPRP", "shrunken log2 fold change": -0.0582}, {"sequence": "RRIRNRPPRLPRPRPRPLCKPRP", "shrunken log2 fold change": -0.146}, {"sequence": "RRIRNRPPRLPRPRPRPFWRPRP", "shrunken log2 fold change": -0.0018}, {"sequence": "RRIRQRPPRLPRPRPRPMCFPRP", "shrunken log2 fold change": -0.352}, {"sequence": "RRIRSRPPRLPRPRPRPQNLPRP", "shrunken log2 fold change": -0.394}, {"sequence": "RRIRYRPPRLPRPRPRPLMSPRP", "shrunken log2 fold change": -0.0164}, {"sequence": "RRIRQRPPRLPRPRPRPLRPPRP", "shrunken log2 fold change": 0.699}, {"sequence": "RRIRKRPPRLPRPRPRPPSDPRP", "shrunken log2 fold change": 0.75}, {"sequence": "RRIRWRPPRLPRPRPRPCPPPRP", "shrunken log2 fold change": -0.463}, {"sequence": "RRIRTRPPRLPRPRPRPAKQPRP", "shrunken log2 fold change": -0.0125}, {"sequence": "RRIRNRPPRLPRPRPRPNFRPRP", "shrunken log2 fold change": 0.0289}, {"sequence": "RRIRSRPPRLPRPRPRPCPRPRP", "shrunken log2 fold change": 0.056}, {"sequence": "RRIRMRPPRLPRPRPRPDVLPRP", "shrunken log2 fold change": -0.123}, {"sequence": "RRIRHRPPRLPRPRPRPIFAPRP", "shrunken log2 fold change": 0.158}, {"sequence": "RRIRWRPPRLPRPRPRPPCKPRP", "shrunken log2 fold change": -0.0735}, {"sequence": "RRIRHRPPRLPRPRPRPERHPRP", "shrunken log2 fold change": 0.0281}, {"sequence": "RRIRWRPPRLPRPRPRPVRVPRP", "shrunken log2 fold change": 0.214}, {"sequence": "RRIRERPPRLPRPRPRPGSIPRP", "shrunken log2 fold change": 0.0371}, {"sequence": "RRIRNRPPRLPRPRPRPCNCPRP", "shrunken log2 fold change": -0.00865}, {"sequence": "RRIRPRPPRLPRPRPRPRGFPRP", "shrunken log2 fold change": 0.341}, {"sequence": "RRIRTRPPRLPRPRPRPFGKPRP", "shrunken log2 fold change": -0.00963}, {"sequence": "RRIRWRPPRLPRPRPRPQCHPRP", "shrunken log2 fold change": -0.13}, {"sequence": "RRIRNRPPRLPRPRPRPSVVPRP", "shrunken log2 fold change": -0.0462}, {"sequence": "RRIRHRPPRLPRPRPRPPIKPRP", "shrunken log2 fold change": -0.16}, {"sequence": "RRIRWRPPRLPRPRPRPPGNPRP", "shrunken log2 fold change": 0.687}, {"sequence": "RRIRYRPPRLPRPRPRPTPYPRP", "shrunken log2 fold change": -0.847}, {"sequence": "RRIRCRPPRLPRPRPRPNFKPRP", "shrunken log2 fold change": -0.21}, {"sequence": "RRIRARPPRLPRPRPRPIGNPRP", "shrunken log2 fold change": 0.00902}, {"sequence": "RRIRTRPPRLPRPRPRPDFCPRP", "shrunken log2 fold change": -0.311}, {"sequence": "RRIRIRPPRLPRPRPRPSSAPRP", "shrunken log2 fold change": -0.666}, {"sequence": "RRIRVRPPRLPRPRPRPFCHPRP", "shrunken log2 fold change": -0.264}, {"sequence": "RRIRFRPPRLPRPRPRPIFCPRP", "shrunken log2 fold change": -0.155}, {"sequence": "RRIRSRPPRLPRPRPRPMNAPRP", "shrunken log2 fold change": 0.0215}, {"sequence": "RRIRTRPPRLPRPRPRPVLNPRP", "shrunken log2 fold change": -0.269}, {"sequence": "RRIRLRPPRLPRPRPRPQTHPRP", "shrunken log2 fold change": 0.0338}, {"sequence": "RRIRMRPPRLPRPRPRPEEMPRP", "shrunken log2 fold change": 3.07}, {"sequence": "RRIRCRPPRLPRPRPRPSQKPRP", "shrunken log2 fold change": -0.169}, {"sequence": "RRIRIRPPRLPRPRPRPYCRPRP", "shrunken log2 fold change": 0.182}, {"sequence": "RRIRDRPPRLPRPRPRPKTNPRP", "shrunken log2 fold change": -0.0796}, {"sequence": "RRIRIRPPRLPRPRPRPPIRPRP", "shrunken log2 fold change": -0.0314}, {"sequence": "RRIRQRPPRLPRPRPRPHGSPRP", "shrunken log2 fold change": -0.00277}, {"sequence": "RRIRLRPPRLPRPRPRPHRLPRP", "shrunken log2 fold change": 0.166}, {"sequence": "RRIRMRPPRLPRPRPRPCKDPRP", "shrunken log2 fold change": -0.0302}, {"sequence": "RRIRERPPRLPRPRPRPAQGPRP", "shrunken log2 fold change": 0.473}, {"sequence": "RRIRWRPPRLPRPRPRPTPWPRP", "shrunken log2 fold change": 0.48}, {"sequence": "RRIRHRPPRLPRPRPRPESWPRP", "shrunken log2 fold change": -0.00647}, {"sequence": "RRIRCRPPRLPRPRPRPTPVPRP", "shrunken log2 fold change": 0.714}, {"sequence": "RRIRSRPPRLPRPRPRPPYEPRP", "shrunken log2 fold change": 0.0519}, {"sequence": "RRIRARPPRLPRPRPRPVYYPRP", "shrunken log2 fold change": -0.518}, {"sequence": "RRIRDRPPRLPRPRPRPCHFPRP", "shrunken log2 fold change": -0.105}, {"sequence": "RRIRPRPPRLPRPRPRPKQHPRP", "shrunken log2 fold change": -0.0393}, {"sequence": "RRIRVRPPRLPRPRPRPQRIPRP", "shrunken log2 fold change": -0.544}, {"sequence": "RRIRMRPPRLPRPRPRPQWFPRP", "shrunken log2 fold change": -0.0662}, {"sequence": "RRIRWRPPRLPRPRPRPECGPRP", "shrunken log2 fold change": 1.37}, {"sequence": "RRIRSRPPRLPRPRPRPKRKPRP", "shrunken log2 fold change": 0.458}, {"sequence": "RRIRRRPPRLPRPRPRPPTGPRP", "shrunken log2 fold change": 0.625}, {"sequence": "RRIRPRPPRLPRPRPRPQCGPRP", "shrunken log2 fold change": -0.0915}, {"sequence": "RRIRPRPPRLPRPRPRPGLIPRP", "shrunken log2 fold change": -0.0104}, {"sequence": "RRIRGRPPRLPRPRPRPDKLPRP", "shrunken log2 fold change": -0.0186}, {"sequence": "RRIRKRPPRLPRPRPRPWYDPRP", "shrunken log2 fold change": -0.153}, {"sequence": "RRIRDRPPRLPRPRPRPNDCPRP", "shrunken log2 fold change": -0.0197}, {"sequence": "RRIRSRPPRLPRPRPRPSDTPRP", "shrunken log2 fold change": -0.396}, {"sequence": "RRIRVRPPRLPRPRPRPYLLPRP", "shrunken log2 fold change": -0.357}, {"sequence": "RRIRQRPPRLPRPRPRPGYVPRP", "shrunken log2 fold change": -0.116}, {"sequence": "RRIRPRPPRLPRPRPRPPIYPRP", "shrunken log2 fold change": 0.0772}, {"sequence": "RRIRMRPPRLPRPRPRPLEQPRP", "shrunken log2 fold change": 0.446}, {"sequence": "RRIRTRPPRLPRPRPRPKLDPRP", "shrunken log2 fold change": 0.2}, {"sequence": "RRIRYRPPRLPRPRPRPDVVPRP", "shrunken log2 fold change": 0.0135}]}]}
